{"source": "patent US20120322150A1", "about": "(CARNEGIE INSTITUTION OF WASHINGTON, published 2012)", "binders": {"B1": {"name": "GST-BIN2 (enzyme, Arabidopsis, UniProt Q39011 1-380, looked up)", "chain": "MADDKEMPAAVVDGHDQVTGHIISTTIGGKNGEPKQTISYMAERVVGTGSFGIVFQAKCLETGETVAIKKVLQDRRYKNRELQLMRVMDHPNVVCLKHCFFSTTSKDELFLNLVMEYVPESLYRVLKHYSSANQRMPLVYVKLYMYQIFRGLAYIHNVAGVCHRDLKPQNLLVDPLTHQVKICDFGSAKQLVKGEANISYICSRFYRAPELIFGATEYTTSIDIWSAGCVLAELLLGQPLFPGENAVDQLVEIIKVLGTPTREEIRCMNPHYTDFRFPQIKAHPWHKIFHKRMPPEAIDFASRLLQYSPSLRCTALEACAHPFFDELREPNARLPNGRPFPPLFNFKQEVAGSSPELVNKLIPDHIKRQLGLSFLNQSGT", "modifications": "phospho-tyrosine 200 (autophosphorylation site of BIN2, detected on GST-BIN2 from E. coli)", "notes": "Expressed and purified from E. coli; also called wild type GST-BIN2; not shown: GST (glutathione S-transferase) tag"}, "B2": {"name": "BIN2 fused to the N-terminal half (nYFP) of YFP (enzyme, Arabidopsis, UniProt Q39011 1-380, looked up)", "chain": "B1 chain", "notes": "BiFC construct in tobacco cells; also called BIN2-nYFP; not shown: N-terminal half of YFP (nYFP)"}, "B3": {"name": "GST-BRI1-K (receptor, Arabidopsis, UniProt O22476 815-1196, looked up)", "chain": "REMRKRRRKKEAELEMYAEGHGNSGDRTANNTNWKLTGVKEALSINLAAFEKPLRKLTFADLLQATNGFHNDSLIGSGGFGDVYKAILKDGSAVAIKKLIHVSGQGDREFMAEMETIGKIKHRNLVPLLGYCKVGDERLLVYEFMKYGSLEDVLHDPKKAGVKLNWSTRRKIAIGSARGLAFLHHNCSPHIIHRDMKSSNVLLDENLEARVSDFGMARLMSAMDTHLSVSTLAGTPGYVPPEYYQSFRCSTKGDVYSYGVVLLELLTGKRPTDSPDFGDNNLVGWVKQHAKLRISDVFDPELMKEDPALEIELLQHLKVAVACLDDRAWRRPTMVQVMAMFKEIQAGSGIDSQSTIRSIEDGGFSTIEMVDMSIKEVPEGKL", "notes": "domain: kinase domain; also called GST BR11-K; kinase domain of BRI1; not shown: GST (glutathione S-transferase) tag"}, "B4": {"name": "GST-BAK1-K (receptor, Arabidopsis, UniProt Q94F62 247-615, looked up)", "chain": "AWWRRKKPQDHFFDVPAEEDPEVHLGQLKRFSLRELQVASDNFSNKNILGRGGFGKVYKGRLADGTLVAVKRLKEERTQGGELQFQTEVEMISMAVHRNLLRLRGFCMTPTERLLVYPYMANGSVASCLRERPESQPPLDWPKRQRIALGSARGLAYLHDHCDPKIIHRDVKAANILLDEEFEAVVGDFGLAKLMDYKDTHVTTAVRGTIGHIAPEYLSTGKSSEKTDVFGYGVMLLELITGQRAFDLARLANDDDVMLLDWVKGLLKEKKLEALVDVDLQGNYKDEEVEQLIQVALLCTQSSPMERPKMSEVVRMLEGDGLAERWEEWQKEEMFRQDFNYPTHHPAVSGWIIGDSTSQIENEYPSGPR", "notes": "domain: kinase domain; also called kinase domain of BAK1; not shown: GST (glutathione S-transferase) tag"}, "B5": {"name": "GST-BSK1 (enzyme, Arabidopsis, UniProt Q944A7 1-512, looked up)", "chain": "MGCCQSLFSGDNPLGKDGVQPQPLSQNNHGGATTADNGGSGGASGVGGGGGGGGIPSFSEFSFADLKAATNNFSSDNIVSESGEKAPNLVYKGRLQNRRWIAVKKFTKMAWPEPKQFAEEAWGVGKLRHNRLANLIGYCCDGDERLLVAEFMPNDTLAKHLFHWENQTIEWAMRLRVGYYIAEALDYCSTEGRPLYHDLNAYRVLFDEDGDPRLSCFGLMKNSRDGKSYSTNLAYTPPEYLRNGRVTPESVTYSFGTVLLDLLSGKHIPPSHALDMIRGKNIILLMDSHLEGKFSTEEATVVVELASQCLQYEPRERPNTKDLVATLAPLQTKSDVPSYVMLGIKKQEEAPSTPQRPLSPLGEACSRMDLTAIHQILVMTHYRDDEGTNELSFQEWTQQMKDMLDARKRGDQSFREKDFKTAIDCYSQFIDVGTMVSPTVFGRRSLCYLLCDQPDAALRDAMQAQCVYPDWPTAFYMQSVALAKLNMNTDAADMLNEAAQLEEKRQRGGRGS", "notes": "also called full-length BSK1; not shown: GST (glutathione S-transferase) tag"}}, "key": {"MBP-BSU1 [1]": {"target": "T1, MBP-BSU1 (Arabidopsis, UniProt Q9LR78 1-793)", "T1 construct": "Recombinant fusion used as probe in overlay (far-western) blots and in phosphatase assays; also called BSU1 from E. coli", "experiment": "overlay blot: GST fusions on membrane probed with MBP-BSU1 and anti-MBP antibody", "procedure": "To test interaction of BSU1 with BIN2 or bin2-1 in vitro, a gel blot separating GST, GST-BIN2, GSTbin2-1 was incubated with 20 μg MBP-BSU1 in 5% non-fat dry milk/PBS buffer and washed four times. The blot was then probed with a polyclonal anti-MBP antibody. In the case of BSU1 overlay to BSK1, GST-BRI1-K, GST-BAK1-K and GST-BSK1 were separated by SDS-PAGE. To prepare phosphorylated BSK1, GST-BSK1 was incubated with GST-BRI1-K and 100 μM ATP in the kinase buffer for 2 hrs before SDS-PAGE. The blot was sequentially probed with MBP-BSU1 and a monoclonal anti-MBP antibody (New England Biolab, Beverly, Mass.)."}, "[2]": {"target": "T2, BSL1 fused C-terminal half (cYFP) of yellow fluorescence protein (Arabidopsis, UniProt Q8L7U5 1-881)", "T2 construct": "BiFC construct; also called BSL1-cYFP; not shown: C-terminal half of YFP (cYFP)", "T2 sequence": "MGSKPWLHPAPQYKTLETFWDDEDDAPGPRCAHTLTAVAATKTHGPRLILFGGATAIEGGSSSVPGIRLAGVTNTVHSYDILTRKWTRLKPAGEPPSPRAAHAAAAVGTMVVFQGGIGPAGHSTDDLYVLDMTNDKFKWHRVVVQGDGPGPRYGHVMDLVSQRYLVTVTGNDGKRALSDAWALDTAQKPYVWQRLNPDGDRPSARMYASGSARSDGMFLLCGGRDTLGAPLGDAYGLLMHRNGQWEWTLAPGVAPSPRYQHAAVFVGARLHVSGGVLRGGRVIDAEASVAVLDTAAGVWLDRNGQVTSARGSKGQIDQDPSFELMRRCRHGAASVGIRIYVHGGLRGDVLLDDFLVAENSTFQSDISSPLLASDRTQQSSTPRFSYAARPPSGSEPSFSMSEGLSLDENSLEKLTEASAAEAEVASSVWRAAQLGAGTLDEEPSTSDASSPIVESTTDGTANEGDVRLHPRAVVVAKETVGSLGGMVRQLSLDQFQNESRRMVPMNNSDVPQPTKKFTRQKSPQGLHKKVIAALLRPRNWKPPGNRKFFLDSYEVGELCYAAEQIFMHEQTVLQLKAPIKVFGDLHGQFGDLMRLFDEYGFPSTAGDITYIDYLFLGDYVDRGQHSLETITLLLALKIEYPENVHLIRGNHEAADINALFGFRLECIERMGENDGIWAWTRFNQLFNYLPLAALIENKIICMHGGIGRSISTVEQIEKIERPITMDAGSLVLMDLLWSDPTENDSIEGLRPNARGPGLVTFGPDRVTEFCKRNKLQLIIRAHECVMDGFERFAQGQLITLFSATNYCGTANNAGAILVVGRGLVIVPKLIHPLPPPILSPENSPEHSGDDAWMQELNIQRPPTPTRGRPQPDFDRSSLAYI", "experiment": "BiFC in tobacco cells", "source_text": "(§1) GST, GST-BIN2 and GST-bin2-1 were separated by SDS-PAGE and blotted onto nitrocellulose membrane. The blot was probed sequentially with MBP-BSU1 and anti-MBP antibody (upper) and then stained with Ponceau S (lower). […] The protein extracts of the tobacco leaves transiently transformed with the indicated constructs were immunoprecipitated with anti-GFP antibody, and the immunoblot was probed with anti-myc and anti-GFP antibody. […] The indicated constructs were transformed into tobacco leaf epidermal cells. Bright spots in BIN2-nYFP+cYFP are chloroplast auto-fluorescence. […] Arabidopsis plants (F1) expressing BSU1-YFP or co-expressing BSU1-YFP and BIN2-myc were grown on the medium containing BR biosynthetic inhibitor, brassinazole (BRZ), for 10 days. The plants were treated with 10 μM MG-132 for 1 hr and then with 0.2 μM BL or mock solution for 15 min. Total protein extracts were immunoprecipitated with anti-myc antibodies, and the immunoblot was probed with anti-GFP and anti-myc antibodies.\n(§2) Transformation by Agrobacterium infiltration, observations of subcellular localization and BiFC signal in tobacco or Arabidopsis were performed as described previously 5. Fluorescence of YFP was visualized by using a spinning-disk confocal microscope (Leica Microsystems, Heerbruag, Germany)."}, "[3]": {"target": "T3, BSU1 fused to C-terminal half (cYFP) of YFP (Arabidopsis, UniProt Q9LR78 1-793)", "T3 construct": "BiFC construct in tobacco leaf epidermal cells, with BIN2-nYFP or bin2-1-nYFP; also called BSU1-cYFP; not shown: C-terminal half of YFP (cYFP)", "experiment": "BiFC in tobacco cells", "source_text": "as §1, §2"}, "MBP-BSU1 [4]": {"target": "T1, MBP-BSU1", "experiment": "in vitro overlay blot, MBP-BSU1 probe, anti-MBP detection", "procedure": "Total protein extracts obtained from Arabidopsis plants (F1) expressing BSU1 -YFP or co-expressing BSU1-YFP and BSK1-myc were immunoprecipitated with anti-myc, and the immunoblot was probed with anti-GFP and anti-myc antibody. […] GST-BSK1 or GST-BSK1 S230A was incubated with GST-BRI1-K or GST for 2 hrs. […] In the presence of BR (+BR), BR binding to the extracellular domain of BRI1 induces dissociation of BKI1 and association and inter-activation between BRI1 and BAKI. Activated BRI1 then phosphorylates BSK1, which in turn dissociates from the receptor complex and interacts with and presumably activate BSU1. BSU1 inactivates BIN2 by dephosphorylating its pTyr200, allowing accumulation of unphosphorylated BZR1/2, likely with help of a phosphatase that is yet to be identified. Unphosphorylated BZR1/2 accumulate in the nucleus and alter the expression of BR-target genes, leading to cellular and developmental responses. While individual representative protein is shown for each function, in Arabidopsis most of these components have about 2 to 5 homologous proteins (paralogs) that can contribute to the same or similar signaling function.\nTo test interaction of BSU1 with BIN2 or bin2-1 in vitro, a gel blot separating GST, GST-BIN2, GSTbin2-1 was incubated with 20 μg MBP-BSU1 in 5% non-fat dry milk/PBS buffer and washed four times. The blot was then probed with a polyclonal anti-MBP antibody. […]"}}, "data": [{"binder": "B1", "values": [{"measurement": "binding result", "setting": "MBP-BSU1 [1]", "result": "binds"}]}, {"binder": "B2", "values": [{"measurement": "binding result", "setting": "[2]", "result": "binds"}, {"measurement": "binding result", "setting": "[3]", "result": "binds"}]}, {"binder": "B3", "values": [{"measurement": "binding result", "setting": "MBP-BSU1 [4]", "result": "no binding"}]}, {"binder": "B4", "values": [{"measurement": "binding result", "setting": "MBP-BSU1 [4]", "result": "no binding"}]}, {"binder": "B5", "values": [{"measurement": "binding result", "setting": "MBP-BSU1 [1]", "result": "binds"}]}]}
